Tests used:
[1] = biological target: T1, recombinant human PD-L1-His protein (Origincell Therapeutics Co., Ltd.) (human, UniProt Q9NZQ7 19-238, limits assumed); assay: BLI (Octet RED384), antibody on AHC sensor, PD-L1-His in solution
T1 construct: not shown: His tag

[2] = biological target: T2, human PD-L1 on cells (CHO cells that stably expressed human PD-L1; MDA-MB-231 cells) (human, UniProt Q9NZQ7 19-290); assay: flow cytometry on CHO cells stably expressing human PD-L1, anti-human IgG-Fc DyLight 650 detection
T2 construct: whole, on cells; Stably expressed on CHO cells; also called CHO cells expressing human PD-L1
T2 sequence (Q9NZQ7 19-290): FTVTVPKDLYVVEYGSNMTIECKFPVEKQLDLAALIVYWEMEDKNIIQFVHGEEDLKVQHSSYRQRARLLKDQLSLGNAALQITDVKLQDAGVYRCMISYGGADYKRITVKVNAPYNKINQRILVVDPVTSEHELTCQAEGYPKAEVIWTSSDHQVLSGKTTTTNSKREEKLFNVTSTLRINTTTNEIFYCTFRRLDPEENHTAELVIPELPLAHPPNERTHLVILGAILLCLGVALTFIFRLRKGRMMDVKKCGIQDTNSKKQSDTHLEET
Protocol: The mixture was mixed well and incubated at 4° C. for 1 hr. After cell washing, Goat F(ab)₂ Anti-Human IgG-Fc (DyLight 650) (ab98593, Abcam) was added and incubated at 4° C. for 30 min. After cell washing, the fluorescence intensity was detected by a flow cytometer (Intellicyt iQue Screener).

[3] = biological target: T3, mouse PD-L1 on CHO cells that stably expressed mouse PD-L1 (mouse, UniProt Q9EP73 19-290); assay: flow cytometry on CHO cells stably expressing mouse PD-L1, anti-human IgG-Fc DyLight 650 detection
T3 construct: whole, on cells; also called CHO cells expressing mouse PD-L1
T3 sequence (Q9EP73 19-290): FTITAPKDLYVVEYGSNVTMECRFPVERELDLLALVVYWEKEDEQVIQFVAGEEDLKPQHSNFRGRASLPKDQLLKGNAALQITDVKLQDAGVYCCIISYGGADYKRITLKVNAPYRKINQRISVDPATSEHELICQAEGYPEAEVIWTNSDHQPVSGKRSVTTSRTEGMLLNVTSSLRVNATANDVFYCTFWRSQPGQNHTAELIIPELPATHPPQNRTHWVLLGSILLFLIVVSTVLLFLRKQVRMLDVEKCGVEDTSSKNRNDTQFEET
Protocol: The mixture was mixed well and incubated at 4° C. for 1 hr. After cell washing, Goat F(ab′)₂ Anti-Human IgG-Fc (DyLight 650) (ab98593) was added and incubated at 4° C. for 30 min. After cell washing, the fluorescence intensity was detected by a flow cytometer (Intellicyt iQue Screener).

[4] = biological target: T2, human PD-L1 on cells (CHO cells that …); assay: flow cytometry competition: biotin-labelled human PD-1-Fc at a subsaturated concentration on CHO cells stably expressing human PD-L1, antibody titrated, streptavidin R-PE detection
Protocol: (§1) After cell washing, Streptavidin R-PE Conjugate (life technology, SA10041) was added and incubated (4° C., 30 min). After cell washing, the fluorescence intensity was detected by a flow cytometer (Intellicyt iQue Screener).

[5] = biological target: T3, mouse PD-L1 on CHO cells that stably …; assay: flow cytometry competition: biotin-labelled mouse PD-1-Fc at a subsaturated concentration on CHO cells stably expressing mouse PD-L1, antibody titrated, streptavidin R-PE detection
Protocol: as §1

T1 sequence (Q9NZQ7 19-238 limits assumed): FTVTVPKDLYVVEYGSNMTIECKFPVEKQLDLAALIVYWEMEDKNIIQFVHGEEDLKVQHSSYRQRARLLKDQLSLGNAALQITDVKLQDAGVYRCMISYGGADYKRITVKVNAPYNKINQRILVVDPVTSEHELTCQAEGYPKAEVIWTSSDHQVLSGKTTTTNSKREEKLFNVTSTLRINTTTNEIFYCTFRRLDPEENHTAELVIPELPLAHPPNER

| Binder | Kd [1] [nM] | koff [1] [s⁻¹] | kon [1] [M⁻¹ s⁻¹] | EC50 (read off the curve) [2] [nM] | EC50 (read off the curve) [3] [nM] | IC50 (read off the curve) [4] [nM] | IC50 (read off the curve) [5] [nM] |
| --- | --- | --- | --- | --- | --- | --- | --- |
| PD-L1 antibody YN-039 (antibody, human IgG1, lambda, V domains shown, full-length IgG1,lambda) VH: QVQLVQSGAEVKKPGSSVKVSCKASRGPFSTYAISWVRQAPGQGLEWMGRIIPILGIANYAQKFQGRVTITADKSTSTAYMELSSLRSEDTAVYYCARTMGEYSYGNYDYWGQGTLVTVSS VL: QSALTQPASVSGSPGQSITISCTGTVSDVGGYNEVSWYQQHPGKAPKLMIYENSIRPSGVSHRFSGSKSGNTASLTISGLQAEDEADYYCQSYDSSLSGTVFGGGTKLTVLG | 0.485 | 0.000173 | 356000 | 3 to 4 | ~6 | ~3 | ~4 |
| PD-L1 antibody YN-037 (antibody, human IgG1, lambda, V domains shown, full-length IgG1,lambda) VH: QVQLVQSGAEVKKPGSSVKVSCKASRGPFSTYAISWVRQAPGQGLEWMGRIIPILGIANYAQKFQGRVTITADKSTSTAYMELSSLRSEDTAVYYCARTMGEYSYGNYDYWGQGTLVTVSS VL: QSALTQPASVSGSPGQSITISCTGTSSSVGGYREVSWYQQHPGKAPKLMIYENSIRPSGVSHRFSGSKSGNTASLTISGLQAEDEADYYCQSYDSSLSGTVFGGGTKLTVLG | 0.382 | 0.000136 | 355000 | 3 to 4 | ~6 | ~3 | ~4 |
| PD-L1 antibody YN-038 (antibody, human IgG1, lambda, V domains shown, full-length IgG1,lambda) VH: QVQLVQSGAEVKKPGSSVKVSCKASRGPFSTYAISWVRQAPGQGLEWMGRIIPILGIANYAQKFQGRVTITADKSTSTAYMELSSLRSEDTAVYYCARTMGEYSYGNYDYWGQGTLVTVSS VL: QSALTQPASVSGSPGQSITISCTGTRSDVGGYNEVSWYQQHPGKAPKLMIYENSIRPSGVSHRFSGSKSGNTASLTISGLQAEDEADYYCQSYDSSLSGTVFGGGTKLTVLG | 0.447 | 0.000156 | 350000 | 3 to 4 | ~6 | ~3 | ~4 |
